What was measured:
[1] = LC-MS assay of GH3 conjugation of IAA with Asp or Glu; format: biochemical; details: for kcat (hrs−1) IAA-Asp: conjugation of IAA with Asp by recombinant GH3 protein, IAA-Asp product by LC-MS; for kcat (hrs−1) IAA-Glu: conjugation of IAA with Glu by recombinant GH3 protein, IAA-Glu product by LC-MS
Outline: (§1)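 N-terminal His-tagged GH3 homologs, expressed in E. coli C41(DE3) and Ni-NTA purified, at 44 to 164 μg/mL incubated 3 h at 30 °C in 20 mM Tris-HCl pH 8.0, 5 mM MgCl2, 1 mM DTT, 5 mM ATP, 5 mM auxin (IAA, 2,4-D or dicamba) and 5 mM Asp or Glu. Conjugates quantified by LC-MS against standards after MeOH precipitation; kinetics from Michaelis-Menten fits of initial velocities.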

[2] = LC-MS assay of GH3 conjugation of 2,4-D with Asp or Glu; format: biochemical; details: 5 mM 2,4-D substrate; for kcat (hrs−1) 2,4-D-Asp: conjugation of 2,4-D with Asp by recombinant GH3 protein, 2,4-D-Asp product by LC-MS; for kcat (hrs−1) 2,4-D-Glu: conjugation of 2,4-D with Glu by recombinant GH3 protein, 2,4-D-Glu product by LC-MS
Outline: as §1

Row | Molecule | kcat (hrs−1) IAA-Asp [1] | kcat (hrs−1) IAA-Glu [1] | kcat (hrs−1) 2,4-D-Asp [2] | kcat (hrs−1) 2,4-D-Glu [2]
1 | PtGH3-6: GH3 protein, accession EEE95183 (protein, listed as Populus trichocarpa) MPEAPKNTLKTSDYNLAEKNKISLQFIEDVTSNADEVQKKVLEEILSRNAHVEYLQRHGLNGQTNRETFKKAVPVITYEDIQPDINRIANGDTSQILCSKPISEFLTSSGTSGGERKLMPTIEEELGRRSLLYSLLMPVMTQFVPGLEKGKGMYFLFIKSEAKTPGGLVARPVLTSYYKSTHFKDRPYDPYTNYTSPNETILCPDSYQSMYSQMLCGLCQHKEVLRVGAVFASGFIRAIRFLEKHWKLLANDIRTGIIDPQITDPSVREAVMKILKSDPKLADFIEAECSKESWQGIITRLWPNTKYVDVIVTGTMSQYIPTLDYYSNGLPLVCTMYASSECYFGVNLNPICKPSEVSYTLIPTMAYFEFLPVHRNNGVINSVSMPKSLNEKEQQELVDLVDVKLDQEYELVVTTYAGLYRYRVGDVLRVVGFKNKAPRFSFICRKNVVLSIDSDKTDEVELQSAVKNAVNHLIPFDATLAEYTSYADTTTIPGHYVLFWELSLNGSTPIPPSVFEDCCLTIEESLNSVYRQGRASDKSIGPLEIKIVEPGTFDKLMDYAISLGASINQYKTPRCVKFAPIVELLNSRVVTCYFSPKCPKWAPGHKQWSKN | 888.111 h⁻¹ | 181.954 h⁻¹ | 5.415 h⁻¹ | 2.816 h⁻¹
2 | VvGH3-3: GH3 protein, accession XP_002283229 (protein, listed as Vitis vinifera) MPEAPKKSFKATGHDYCLAEKNKKALQFIEDVTTNADQVQKRVLAEILTRNAHVEYLHRHGLGGHTDRDTFKKLMPVITYEDLQPDITRIANGDTSLILCSNPISEFLTSSGTSGGERKLMPTIEEELERRSLLYSLLMPVMSQSVQGLEKGKGMYFLFIKSEAKTPGGLVARPVLTSYYKSSHFRERPYDPYTNYTSPNETILCPDSYQSMYSQMLCGLVQNKEVLRVGAVFASGFIRAIRFLEKHWTLLCRDIRTGTIDQQITDPSVREAVMRVLKPDPKLADFVEGECRKESWQGIITRLWPNTKYVDVIVTGTMSQYIPTLDYYSNDLPLVCTMYASSECYFGVNLNPLCKPSEVSYTLIPTMAYFEFLPVHRNNGTNSISVPKSLNDKEQQDLVDLVDVKLGQEYELVVTTYAGLYRYRVGDVLRVAGFKNKAPQFNFVCRKNVVLSIDSDKTDEVELQAAVKNAVNHLMPFDATLTEYTSYADTTTIPGHYVLYWELSLRGSTPIPPSVFEDCCLTVEESLNSVYRQGRVSDKSIGPLEMKIVESGTFDKLMDYAISLGASINQYKTPRCVKFAPIIELLNSRVVSNYFSPKCPKWIPGHKQWCNKN | 1006.325 h⁻¹ | 79.770 h⁻¹ | 5.615 h⁻¹ | 1.602 h⁻¹
3 | VvGH3-2: GH3 protein, accession XP_002283886 (protein, listed as Vitis vinifera) MAVDSGLSSPLGPPACEKDAKALQFIEEMTRNPDQVQEKILAEILSQNGETEYLQRFKLAGATDRDTFKSKVPVVTYEDLQPDIQRIANGDRSPILSSHPISEFLTSSGTSAGERKLMPTIHEEWDRRQKLYSLLMPVMNLYVPGLDKGKGLYFLFVKSETKTPSGLVARPVLTGYYRSEHFKKRPYDPYNVYTSPDEAILCVDSFQSMYAQMLCGLLMHKEVLRVGAVFASGLLRAIRFLQVHWQQLAHDISTGILNPKITDPSVREGLAGILKPSQELADFIIQECSGGNWERIITRIWPNTKYLDVIVTGAMAQYIPTLDYFSGGIPLACTMYASSECYFGLNLKPMSKPSEVSYTIMPNMGYFEFLPHDPSAPPLSRDSPPRLVDLADVEVGKEYELVITTYAGLCRYRVGDILQVTGFHNSAPQFQFIRRKNVLLSIDSDKTDEAELQKAVENASLLLREFNTSVVEYTSFADTKTIPGHYVIYWELLVKDPSNSPTDTVLKQCCLAMEESLNTVYRQGRVADNSIGPLEIRVVKSGTFEELMDYAISRGASINQYKVPRCVNFTPIMELLDSRVLSTYFSPAAPHWTPERRRTD | 1011.181 h⁻¹ | 45.833 h⁻¹ | 5.691 h⁻¹ | 1.113 h⁻¹
4 | RcGH3-3: GH3 protein, accession XP_002524947 (protein, listed as Ricinus communis) MAVDSGLSSPLGPPACEKDAKALQFIEEMTRNIDSVQEKVLAEILSRNAETEYLERFQLNGATDRDAFKSKVPVVTYEDLQPEIQRIANGDRSNIFSSHPISEFLTSSGTSAGERKLMPTIHEELDRRTLLYSLLMPVMNLYVPGLDKGKGLYFLFVKAETKTPGGLVARPVLTSYYKSEHFKNRPFDPYNVYTSPNETILCPDSFQSMYSQMLCGLIMREEVLRVGAVFASGLLRAIRFLQINCKHLAEDISTGTLNPKISDPSIRECMAKILKPNPELAEFITKECSEENWEGIITRIWPNTKYLDVIVTGAMAQYIPTLEYYSNGLPMACTMYASSECYFGVNLNPMVKPSDVSYTIMPNMAYFEFLPHESSSSALSRDSPPRLVDLADVEVGKEYELVITTYAGLNRYRVGDILRVTGFHNAAPQFRFIRRKNVLLSIDSDKTDESELQKAIENASLLLREFNTSVVEYTSYGDTKTIPGHYVIYWELLIKDPSNSPTEQVLNQCCLAMEESLNSVYRQGRVADSSIGPLEIRVVKNGTFEELMDYAISRGASINQYKVPRCVSFTPIMELLDSRVVSKHFSPSLPQWTPERRR | 887.172 h⁻¹ | 36.015 h⁻¹ | 3.813 h⁻¹ | 1.854 h⁻¹
5 | VvGH3-1: GH3 protein, accession XP_002271252 (protein, listed as Vitis vinifera) MAVDPILSSPLGPAASEKDAKALQFIEEMTRNADSVQERVLAEILSRNGETEYLKRFKLEGSTVRETFKSKIPVIKYEDLQPEIQRIANGDRSAILSAHPISEFLTSSGTSAGERKLMPTIQEELDRRQMLYSLLMPVMNLYVPGLDKGKGLYFLFVKSETRTPGGLLARPVLTSYYKSEHFKTRPYDPYNVYTSPNEAILCADSFQSMYTQMLCGIYERKQVLRLGAVFASGLLRAIRFLQLNWHQLTHDIRTGTLSPKITDPSVRNCVAGVLKPDPELADLVAGECSKDNWEGIITRIWPNTKYLDVIVTGAMAQYIPTLDYYSGGLPLACTMYASSECYFGLNLNPMSKPSEVSYTIMPNMAYFEFLPHEHSSIPLSRDSPPRLVDLAHVEVGKEYELVITTYAGLYRYRVGDILRVTGFHNSAPQFHFVRRKNVLLSIDSDKTDEAELQKAVDNASKLLREVNTSVVEYTSFADTKTIPGHYVIYWELLVKDSANSPSDELLGQCCLAMEESLNSVYRQGRVADNSIGPLEIRVVKSGTFEELMDYAISRGASINQYKVPRCVNFTPIMELLDSRVVSSHFSPALPHWTPARRR | 964.027 h⁻¹ | 45.433 h⁻¹ | 2.529 h⁻¹ | 0.635 h⁻¹
6 | ThBAJ34606: GH3 protein, accession BAJ34606 (protein, listed as Thellungiella halophila) MPEAPKNESLEIFDLTLDEKNKRKLQLIEELTSNADQVQRRVLEEILTRNADVEYLRRHDLDGRTDRETFKNVMPVITYEDIQPEINRIANGDKSHILSIKPISEFLTSSGTSGGERKLMPTIEEELDRRSLLYSLLMPVMSQFVPGLDKGKGMYFLFIKSESKTPGGLPARPVLTSYYKSSHFKERPFDPYTNYTSPNETILCPDSYQSMYSQMLCGLCQHQEVLRVGAVFASGFIRAIKFLEKHWTELVCDIRTGVLSSLITDPSVREAVAKILKPNPKLADFVESECKKKSWQGIITRLWPNTKYVDVIVTGTMSQYIPTLDYYSNGLPLVCTMYASSECYFGVNLKPLCKPSEVSYTLIPTMAYFEFLPVHRNTGVTNSINLPKALTEKEQQELVDLVDVKLGQEYELVVTTYAGLCRYRVGDLLRVTGFKNKAPQFSFICRKNVVLSIDSDKTDEVELQNAVKNAVTHLVPFDASLSEYTSYADTSSIPGHYVLFWELCLDGNTPIPPSVFEDCCLAVEESLNTVYRQGRVSDKSIGPLEIKIVEPNTFDKLMDYAISLGASINQYKTPRCVKFAPIIELLNSRVVDSYFSPKCPKWVPGHRQWGSN | 610.082 h⁻¹ | 67.109 h⁻¹ | 4.232 h⁻¹ | 1.750 h⁻¹
7 | RcGH3-6: GH3 protein, accession XP_002533739 (protein, listed as Ricinus communis) MPEAPKNSLISSDYNLSEKNRKTLQFIEDVTSNPDEVQKKVLEEILTRNARVEYLQKHGLNGYTDRESFKKIMPVIAYEDIQPHINRIANGDTSPILCSKPISEFLTSSGTSGGERKLMPTIEEELGRRSLLYSLLMPVMNQFVPGLEKGKGMYFLFIKSEAKTPGGLVARPVLTSYYKSSHFKDRPFDPYTNYTSPNETILCPDSYQSMYSQMLCGLCQRNDVLRVGAVFASGFIRAIRFLEKHWQLLCNDIRTGTVNPQITDLSVREAVMKILKPDPKLADFIAAECSQESWQGIITRLWPNTKYVDVIVTGTMSQYIPTLDYYSNGLPLVCTMYASSECYFGVNLNPLCKPSEVSYTLIPTMAYFEFLPVHRNNGVTNSISMPKSLNEKEQQELVDLVDVKLGQEYELVVTTYAGLYRYRVGDVLRVAGFKNKAPQFNFICRKNVVLSIDSDKTDEVELQNAVKNAVNHLVPFDATLAEYTSYADTTSIPGHYVLFWEITLNGSTPIPPSIFEDCCLTIEESLNSVYRQGRVSDKSIGPLEIKIVEPGTFDKLMDYAISLGASINQYKTPRCVKFAPIVELLNSRVVSSYFSPKCPKWVPGHKQWGNKN | 1037.037 h⁻¹ | 183.972 h⁻¹ | 4.189 h⁻¹ | 2.525 h⁻¹
